Measurements as given in publication PMC5117717 (2016).

Legend:
RadA-ct = RadA-ct (Pyrococcus furiosus); experiment: ITC
HumRadA33 = HumRadA33 (Pyrococcus furiosus, UniProt O74036 108-349, S167K | V168A | I169M | W170Y | N175G | I182L | R183L | D192S | P193G | D194S | …); experiment: ITC

B1: RadA oligomerisation peptide (peptide)
peptide: Ac-NLGTFMRADEYLKKRA-NH2
RadA-ct
  Kd: 0.6 µM
HumRadA33
  Kd: 13 µM
